# Test: soluble on expression in E. coli; label from the status in PepcDB or PDB records
row,Sequence,soluble on expression in E. coli
1,MQAEKLAYYPFTSEASAYVGNLGISLESLLNSRAYRAARARGIERVKEALEGEIKKSPVSGEAQVLSELLSYPFARMLVACVDDQLFTRRYALAEAKAAYTFLRNENPDFLLEFGDDFGISADSQDSYFSMHFTDYIRFSNSLKDPSWKLTNRQLRAGKIKITKEEFSRLLEEAVRERIEQSFPVPEIPPEVSSFCSPYAAEIKDKFEVQKKKFGSTDFGAVKPELFPPCIAYALANVQGGVNLAHSMRFAMTSFLLNVGMSVDEILNLFNISPDFNAEKTLYQIEHIAGATGNTYKPPACDTMRTYGNCVGKDRLCEKISHPLGYYEKKVFIKNKEGEEAQGKEQGKEKDDGKEKENGKESEVKKKKEKLEHHHHHH,soluble
2,MSTSEKRKGMQTDMPELQAMISQRIQEQNYREVLKGVTAFPWCTDDPCVFRTAAGNLWIAVGHVNRKSEVPKFSYKNFLCAYLLGNAEDGVAAYLDLQAAAWKGVELVMFSSHADGLSALYGDGRANDRDLLYRFFGRNYVFAVGFRKKEEKEQASAGDKIFIASVDAVGFGEIDKDGKLAVINKIMSYEQFFDDEDLKPMWGALAVKLFILKCNGYRESAKDRKALDILLHDMMKLCKSMELTAGLDDQKRKHPESAGINPQMALLKNEAMVKVHNGMDEKVKSNLPLLEWAVNHLPAKLLQEFGTFVESVPQIKEPTAYDNLMSLESVLKEMDRLFKKAAEEENLSLTKNSMTDG,not soluble
3,METPIAEELAKKQKSISVAEFFEKNRQILGFDSAPRSLITTVKEAVDNALDACEEAGILPDILVQVERTGPDYVTVIIEDNGPGIVREQIPKVFAKLLYGSRFHALKQSRGQQGIGISAAVLYAQMTAGRHTKILSKTSPTAPAHYYELMINTSTNEPDILVDEVRDWFRPHGTQIELEMRAAYVKGRRQSIYEYLKATAIVNPHARITLIDPDGNEEVFERATDKMPEPAEEILPHPEGIELGTLMKMLHYTERQKLAPFLRYSFCKIGLLTAEEICKAAGLDPEIDPHALGRHEARKLIEAFEKVKIMAPPTDCLSPIGEDLIYRGLEKETTVDFIATSTRKPAVYSGNPFVVEVGMAYGGNLPKEEKISIMRFANRVPLLYQQGGCVTTHAVEDIKWKQYGLNQPGGGIPVGPVILLIHVASINVPFTSESKDAIADIPVIKEEIDLAIKEVARKLKHYLSKQSNLKKRREKEIIITKVLPKLAAKVAHVLEKDVPDINPVVAKIMGNLLVHRVIKNNGDGTVDVAIKVKNFGTSAYSFRVHEMLPCKVSGAKPEPKVVTMGNDYDYVWDISASAGSSKVLSYKIESASEEELQKLPQLIVEGIEEELVTGAKAFKGV,soluble
4,MGHHHHHHSHQGEEELVSQTDVKTFLEALPQESWQNKHAGSNGNRATNGAPSLVSRGMQGASANTLNSETSTKRAAVYRMNRNHRGLCVIVNNHSFTSLKDRQGTHKDAEILSHVFQWLGFTVHIHNNVTKVEMEMVLQKQKCNPAHADGDCFVFCILTHGRFGAVYSSDEALIPIREIMSHFTALQCPRLAEKPKLFFIQACQGEEIQPSVSIEADALNPEQAPTSLQDSIPAEADFLLGLATVPGYVSFRHVEEGSWYIQSLCNHLKKLVPRMLKFLEKTMEIRGRKRTVWGA,not soluble
5,MIDSQGWYRLARKVPSPHCDVRHDSEDISLLVVHNISLPPGQFGGPYIEQFFLGELDANQHSFFKVIAKMRVSAHCVIRRDGEVVQFVPFHLRAWHAGVSSFAGRAKCNDYSIGIELEGSDFVPYTDAQYQALTELTQALMVRYPHITLPRITGHQYIAPLRKTDPGLVFDWRRFRAGLKS,not soluble
6,MGRGEHKEHKRKRSRSKERKRSRSRSPRGSREHREHRDRDRDRERRRERDTDREKTRDREKQRDAEKKKEKESKTAIFEMEESRNDTEEVMKMKEAELLQGVERRRRNVEKWRAQKKKEELDLQSEQSDEKSEKKPWNLEDEDDEDEFDIKNEGISEENPVKMEEKVEKMDTDDEEDPLDAFMKEIATKNAKKTGNSTQKASGIVTIVQEEKPEPEKGQVLENEDNMDMVIDDFDIETAAASLCHKGRMLAQTDHSKVYYRKFKKNFYIETEEIRRMTKAEVKAYREELDSITVKGIDCPKPIKTWAQCGVNLKMMNVLKKFEYSKPTSIQAQAIPSIMSGRDVIGIAKTGSGKTLAFLLPMFRHILDQPELEEGDGPIAVILAPTRELAMQTYKEANKFAKPLGLKVACTYGGVGISEQIADLKRGAEIVVCTPGRMIDVLAANSGKVTNLRRVTYLVLDEADRMFDKGFEPQIMKVVNNIRPDKQTVLFSATFPRHMEALARKVLDKPVEILVGGKSVVCSDITQNAVICAEHQKFLKLLELLGMYYEEGSSIVFVDKQEKADDIVDQLMRTGYNSVAPLHGGIDQHDRDSSIADFKTGVIKVLVATSVAARGLDVKNLILVVNYDCPNHYEDYVHRVGRTGRAGRKGYAYTFVLPEHQEKMAGEICRAFETAGCKPPADLKAMFERFKSEMAAEGKEVKLGGKGFEGSGYKYDEGEAEADANKKRMTRLTAQLQRGGTQARYKV,not soluble
7,MGSDKIHHHHHHRSPQGQFTEDDNPNALVNGKIYNVYTMMRSFDITAGTPAIAIHYLRSEDSEKGSIPSDGSDVAEMYDDFLYTPTNGLLGSYWGKNYAIIYQCNDILDAIAEKETAGQTETEDIINKGEASFFRAYCYFNLVRAFGEVPLVTYKINDASEANIPKTTADKIYEQIDTDLKTAEESLPETWSTEYTGRLTWGAARSLHARTYMMRSDWDNMYKASTDVINKGLYNLKTPYNEIFTDDGENSGGSIFELQCTATAALPQSDVIGSQFCEVQGVRGAGQWDLGWGWHMATQLMADAYETGDPRKNATLLYFRKTDDEPITPENTNEPYGESPISPAMGAYFNKKAYTDPALRKEYTNKGFWVNIRLIRYSDVVLMAAEAANEKNIPGEAVDYLEMVRARARGTNTNILPKITTNDQGELREAIRHERRVELGLEPDRFYDLVRWGIASEVLHAAGKVNYQDKNALLPLPQSEIDKSKGVLVQNPDY,not soluble
8,MRLDLSAKFRQVLGLAKDHASIGRAIVQNYNEKAFFDIEVAVVRATSHDDCPVDDKTMHEILFLVSNTPGSIPFLAEQISRRLAKTRDCLVAGKTLLLFHRLLRGSSRSIEQQLHIAHTSGHLQIGCSWFMMSLDSRSFVFLQNYVAYLQERVGWIINQAGKLEPVMSGGTKFSRYKEKSMDLVFHILPKCQEFIAQVLKCSPVDAWPIDNLVQAATGNILKESFQVYMTYSDGMTALVSMLFDLSRPARDLACGMLRKASQQIQDLRILYDKCRGFAGMKSLDYPSVQAISMDHIVALEECSSYGGKRGFSLSTNLRDAITCNELKQEQHSASFSSTSPFSLPVETKISMVWVVFDNEDGEESDKQTEKAYER,soluble
9,MAHHHHHHMGKGAVHPNGSNFCRFLKYNIVDKMRTLVNTNLYDTPRWLEWSERAPPMEIYNISLKTKYNNNKYMDLVKFLLKKYPHLRFQDCYVEGNNNIKGYDYFRNDHIITQMATHQLYYMNRGYSKKEALEKTEKLFYDRRMDIEKQQKINMCLAIDEKVKPIYTNGYQYLYEKMADNEKAHLSIILKKLRNMKEKLQKKKKGANENEDKKNGVLT,not soluble
10,MSLWKNTIHSISSNLSLKNPATKDELTDIQKCLHVELPNDLYQLLQETNGIEGEYGDFIWSASKIKTENMSMRNIVDFKDLYMPFDCLLFFADGGNGDLFGYSILNGKVQRDDIYVWNHENDSRTWVALSLKTFMEWWESGKITIEGHHHHHH,soluble
11,MGHHHHHHSHMKANLSLLRRPGEKTYTQRCRLFVGNLPADITEDEFKRLFAKYGEPGEVFINKGKGFGFIKLESRALAEIAKAELDDTPMRGRQLRVRFATHAAALSVRNLSPYVSNELLEEAFSQFGPIERAVVIVDDRGRSTGKGIVEFASKPAARKAFERCSEGVFLLTTTPRPVIVEPLEQLDDEDGLPEKLAQKNPMYQKE,soluble
12,RAIFKISVAKEKEKMDSLEHNDDNQAIALSLVVKNPAVFSKTLAEVRQLLKGHDYVISRTMDSRTNSISLAHSDTVLNENDRVFVITNPQNTAVISSFIGTEVQMDRKQWIPTESHLVSRRFIVTKSELNGKTLGSLQLRKMHGMNVTRVNRAGVEMVALASLPLQVGDRLTVVGSELVMPKVEELIGNSVKRLNEPN,soluble
13,MGSDKIHHHHHHAAVTKTTWSDAPAREFVFVENNSDDNFFVTPGGALDPRMTGANRWTGLKYTGSGTIYQQSLGYIDNGYNTGLNANWKFDMWLENSPVSHPLTGLRCINWYAGCDMATSLILPQTTDASGFYGATVTSGGAKWMHGMMSDAFYQYLQQMPVGGSFTMTINACQTSVNYDASSGARCKDQASGNWYVRNVTHTKAANLRLINTHSLAEVFINSDGVPTLGEGNADCRTQTIGSRSGLSCKMVNYTLQTNGLSNTSIHIFPAIANSSLASAVGAYDMQFSLNGSSWKPVSNTAYYYTFNEMKSSDSIYVFFSSNFFKQMVNLGISDINTKDLFNFRFQNTTSPESGWYEFSTSNTLIIKPRDFSISIISDEYTSAPSREGYVGSGEPALDFGYIVTTSGKTAADEVLIKVTGPAQVIGGRSYCLFSSDDGTAKVPFPATLSFITRSGTTQTYDAGCDDSWRDMTDALWLTTPWTDISGEVGQMDKTTVKFSIPMDNAISLRTVDDNGWFGEVSASGEIHVQATWRNIN,not soluble
14,MRMPASMEPDWKALLRVLRAHSATFYLGSLLFPKEARKGAWAVYAACRLGDEAVDGEGGGPEALEAWCSGVERAYRGRPLAEWEKGLAWALERWDIPFEAFLHMREGFQTDLGPVRLGTEAELLRYCYQVAGTVGRMMAPIAGGGKEAEARAVKLGQAMQLTNILRDVGEDLGRDRVYLPSELLKAYGVRLSDLEAGRITPEYRALMAHLEGKARALYREGLAGLGHLKVGRAAIALAALQYRGILDKLRLSGYDNLGRRAHLKAWERALLLPKAFLAARFPPRPEGSP,soluble
15,MGSDKIHHHHHHMHIADITMFYAPASGGVRTYLEAKRNRLAKLPGVTSSLLVPGAYHRSHGSIHEVPAPPLPFSQGYRFPLKRRGWQRELHRLAPDLIEAGDPYVTAWAALDAGRALDVPVVGFYHSDLPRLIGNRLGNWTRAALDRYVRNLYGHCDRVLAPSRVIADRLQTLGLDNVAVQPLGVDLTTFSPQRRQFAFRQRLGLDDDTRLLIFVGRGSREKNLSVLLDTARHLGKGYHLVLIGPQMPQRVPDNVSVIGRYTATADVADWLASSDILLHAGTQETFGLVALEAMASGIPVVAARAGALAENVPLGCGRLCEPHSAQDMARAVRELCADAPEEQGRRARQHVERHHDWDIVVSSLMHHYRELTGQRVNTESLQHG,not soluble
16,MGSDKIHHHHHHMNSPKNSLYEEKSGHYYNAVNPNLLKHIKKEWKEVLDIGCSSGALGAAIKENGTRVSGIEAFPEAAEQAKEKLDHVVLGDIETMDMPYEEEQFDCVIFGDVLEHLFDPWAVIEKVKPYIKQNGVILASIPNVSHISVLAPLLAGNWTYTEYGLLDKTHIRFFTFNEMLRMFLKAGYSISKVDRVYVDHKMYEPLIEELYGICKKYRLGSGFMAETVVFQYIIEAEKSQL,not soluble
17,MNTFTACVERGENWWVAQLVEDPGVIVQARRLDQIQEEIRDALALFPKLTDSPETASVHLDLVGEIEQKAQATRDQLAAIRECEAHELANMSQHARRLQAAGVLRDSMQIASGSQAARS,not soluble
18,SGLVPRGSHMRLRPLGIEGVWEITPEQRADPRGVFLDWYHVDRFAEAIGRPLRLAQANLSVSVRGVVRGIHFVDVPPGQAKYVTCVRGAVFDVVVDLRVGSPTYGCWEGTRLDDVSRRAVYLSEGIGHGFCAISDEATLCYLSSGTYDPATEHGVHPLDPELAIDWPTGTPLLSPRDQDALLLAEARDAGLLPTYATCQAVTVPSPAPGSVGDPGP,soluble
19,MGSDKIHHHHHHMNFPELKLSQTERDFNFDFAILEHDLSYFFEKRCLDYALEHINRFNHKIKDNLYNVRPLILKEALISLTCDLASVSFYHYLNMITFVNLRKDILHYLTTTTLTNDDFMPLLESIVNNYFSNLDTLDIPIDGTRLSKQVALVVYYIDNHCDEPLRANTILEELTLDPEYTKRKFRKELGFTINFYIRHAKLQRAKQLLINTHLPIGEIAERINFYNSAEFARQFQKEFDITPSKYRELNQIFYKEE,not soluble

# — the DeepSol protein solubility set
